Legend:
[1] = molecular target: T1, Human PD-L1, full length, on transfected cells (W315-CHO-K1.hProl.C11) (human, UniProt Q9NZQ7 19-290); assay: competition FACS: blocks mFc tagged human PD-1 binding to human PD-L1 expressing cells
T1 construct: whole, on cells; Also used here for the human PD-L1 on the artificial APC (CHO-K1 with human PD-L1 and OKT3 scFv) of the reporter gene assay; also called hPD-L1; cell surface human PD-L1
Protocol: MFI of the cells was measured by a flow cytometer and analyzed by FlowJo.

Human TGF-β1 [2] = molecular target: T2, Human TGF-β1 (human, UniProt P01137 279-390); assay: ELISA, plate coated with human TGF-β1
T2 construct: 22 kDa was used for the molar concentration in SPR
Protocol: (§1) The binding of antibodies to human TGF-β1, TGF-β2 and TGF-β3 was determined by ELISA. Plates were coated with human TGF-β1, TGF-β2 or TGF-β3 overnight at 4° C., respectively. After blocking and washing, various concentrations of testing antibodies were added to the plates and incubated at room temperature for 1 hour. The plates were then washed and incubated with HRP-labeled goat anti-human IgG antibody (Bethyl) for 1 hour. After washing, TMB substrate was added and the color reaction was stopped by 2M HCl. The absorbance at 450 nm and 540 nm was read using a microplate reader (SpectraMax M5e).

Human FcRn = Human FcRn (human, UniProt P55899 24-297; P61769 21-119); assay: SPR (Biacore 8K), antibody immobilized on CM5, human FcRn as analyte, steady-state model, pH 6.0
Protocol: Each antibody was immobilized on CM5 sensor chip (GE). […] The chip was then regenerated by 10 mM glycine (pH 1.5) after each binding cycle. The sensorgrams of blank surface and buffer channel were subtracted from the test sensorgrams.

[3] = molecular target: T3, Human PD-L1 extracellular domain (ECD) antigen His tagged (human, UniProt Q9NZQ7 19-238); assay: SPR (Biacore 8K), antibody captured by anti-human IgG Fc, PD-L1 as analyte, 1:1 model
T3 construct: extracellular domain; The SPR and the PD-L1-coated ELISA say only 'human PD-L1'; also called human PD-L1 ECD protein; Human PD-L1 (SPR analyte); not shown: His tag
Protocol: (§2) Antibody was captured on an anti-human IgG Fc antibody immobilized CM5 sensor chip (GE). Human or cyno PD-L1 at different concentrations were injected over the sensor chip at a flow rate of 30 μL/min for an association phase of 180 s, followed by 3600 s dissociation. Mouse PD-L1 at different concentrations were injected over the sensor chip at a flow rate of 30 μL/min for an association phase of 120 s, followed by 1200 s dissociation. The chip was regenerated by 10 mM glycine (pH 1.5) after each binding cycle.
(§3) The sensorgrams of blank surface and buffer channel were subtracted from the test sensorgrams. […] The experimental data was fitted by 1:1 model using Langmiur analysis. Molecular weight of 40 kDa was used to calculate the molar concentration of human, mouse and cyno PD-L1.

[4] = molecular target: T4, Cynomolgus monkey (cyno) PD-L1 ECD antigen His tagged (cynomolgus monkey, UniProt G7PSE7 19-238); assay: as above
T4 construct: also called Cyno PD-L1 (SPR analyte)
Protocol: as §2, §3

Human TGF-β3 [5] = molecular target: T5, Human TGF-β3 (human, UniProt P10600 301-412); assay: ELISA, plate coated with human TGF-β3
T5 construct: also called TGF433 [sic]
T5 sequence (looked up): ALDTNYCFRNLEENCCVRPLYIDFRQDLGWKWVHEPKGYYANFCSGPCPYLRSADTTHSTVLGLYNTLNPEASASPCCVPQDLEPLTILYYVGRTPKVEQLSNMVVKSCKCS
Protocol: as §1

[6] = molecular target: T6, Mouse PD-L1, full length, on transfected cells (W315-293F.mPro1.C1) (mouse, UniProt Q9EP73 19-290); assay: FACS on mouse PD-L1 expressing 293F cells
T6 construct: whole, on cells; also called cell surface mouse PD-L1
Protocol: (§4) The binding of testing antibodies to cynomolgus monkey or mouse PD-L1 was determined by FACS. Various concentrations of testing antibody were incubated with cynomolgus PD-L1-expressing W315-293F.cynoPro1.2A2 cells or mouse PD-L1 expressing W315-293F.mPro1.C1 cells at 4° C. for 1 hour, and then the binding of antibodies to the surface of the cells was detected by PE-labeled goat anti-human IgG-Fc antibody (Jackson Immuno Research). MFI of the cells was measured by a flow cytometer and analyzed by FlowJo.

Human TGF-β2 [7] = molecular target: T7, Human TGF-β2 (human, UniProt P61812 303-414); assay: ELISA, antibody immobilized, soluble TGF-β2 titrated; ELISA with antibody immobilized and soluble TGF-β2 titrated: binds
T7 sequence (looked up): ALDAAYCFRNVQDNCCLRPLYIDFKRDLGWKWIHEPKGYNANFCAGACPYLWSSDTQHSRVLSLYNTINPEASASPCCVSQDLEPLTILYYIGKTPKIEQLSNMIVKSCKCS
Protocol: The binding of antibody to human TGF-β2 was also determined by ELISA immobilized with testing antibodies. After blocking and washing, various concentrations of TGF-β2 were added to the plates and incubated at room temperature for 1 hour. The plates were then washed and incubated with biotinylated TGF-β2 detection antibody (R&D, DY240) for 1 hour, followed by streptavidin-HRP for 1 hour. After washing, TMB substrate was added and the color reaction was stopped by 2M HCl. The absorbance at 450 nm and 540 nm was read using a microplate reader (SpectraMax M5e).

Human TGF-β3 [8] = molecular target: T5, Human TGF-β3; assay: ELISA, plate coated with human TGF-β3, antibody titrated, HRP goat anti-human IgG
Protocol: as §1

Human TGF-β1 [9] = molecular target: T2, Human TGF-β1; assay: cell-based or functional assay
[10] = molecular target: T1, Human PD-L1, full length, on …; assay: cell-based or functional assay
Human TGF-β1 [11] = molecular target: T2, Human TGF-β1; assay: ELISA, plate coated with human TGF-β1, antibody titrated, HRP goat anti-human IgG
Protocol: as §1

Human TGF-β3 [12] = molecular target: T5, Human TGF-β3; assay: SPR (Biacore 8K), antibody immobilized on CM5, TGFβ as analyte, 1:1 model
Protocol: (§5) Antibody binding affinity to TGFβ was detected by SPR assay using Biacore 8K. Each antibody was immobilized on CM5 sensor chip (GE). Human TGFβ1 and TGFβ3 at different concentrations were injected over the sensor chip at a flow rate of 50 uL/min for an association phase of 240 s, followed by 1200 s dissociation. Human TGFβ2 at different concentrations were injected over the sensor chip at a flow rate of 50 uL/min for an association phase of 240 s, followed by 300 s dissociation. The chip was regenerated by 10 mM glycine (pH 1.5) after each binding cycle.
(§6) The sensorgrams of blank surface and buffer channel were subtracted from the test sensorgrams. The experimental data was fitted by 1:1 model using Langmiur analysis. Molecular weight of 22 kDa, 24 kDa and 22 kDa were used to calculate the molar concentration of analyte TGFβ1, TGFβ2 and TGFβ3, respectively. The results are shown in […]

Human TGF-β1 [13] = molecular target: T2, Human TGF-β1; assay: as above
Protocol: as §5, §6

Human TGF-β1 [14] = molecular target: T2, Human TGF-β1; assay: dual binding ELISA coating with TGF-β1, WT1122 after 0 to 14 days in human serum at 37 °C, detected with biotinylated human PD-L1 ECD and streptavidin-HRP [upper panel]
Protocol: After blocking and washing, various concentrations of testing antibodies were added to the plates and incubated at room temperature for 1 hour. […] After washing, TMB substrate was added and the color reaction was stopped by 2M HCl. The absorbance at 450 nm and 540 nm was read using a microplate reader (SpectraMax M5e).
(§7) The samples were quickly thawed immediately prior to the stability test.

[15] = molecular target: T8, Mouse PD-L1 (soluble SPR analyte) (mouse, UniProt Q9EP73 19-239, limits assumed); assay: SPR (Biacore 8K), antibody captured by anti-human IgG Fc, mouse PD-L1 as analyte, 0-300 s curves fitted
T8 construct: 40 kDa used for molarity
Protocol: as §2, §3

Human TGF-β2 [16] = molecular target: T7, Human TGF-β2; assay: SPR (Biacore 8K), antibody immobilized on CM5, TGFβ as analyte, 1:1 model; SPR with WT1122 as ligand on the chip and soluble TGF-β2 as analyte: binds
Protocol: as §5, §6

[17] = molecular target: T1, Human PD-L1, full length, on …; assay: PD-L1 FACS on human PD-L1 expressing cells, WT1122 after 0 to 14 days in human serum at 37 °C [lower panel]
Protocol: (§8) Various concentrations of testing antibodies were incubated with hPD-L1 expressing W315-CHO-K1.hProl.C11 cells at 4° C. for 1 hour. After washing, the cells were incubated with PE-labeled goat anti-human IgG-Fc antibody (Jackson Immuno Research). Finally, the MFI of the cells was measured by a flow cytometer and analyzed by FlowJo.
as §7

[18] = molecular target: T9, Cynomolgus monkey PD-L1, full length, on transfected cells (W315-293F.cynoPro1.2A2) (cynomolgus monkey, UniProt G7PSE7 19-290); assay: FACS on cyno PD-L1 expressing 293F cells
T9 construct: also called cyno PD-L1; cell surface cyno PD-L1
Protocol: as §4

[19] = molecular target: T1, Human PD-L1, full length, on …; assay: FACS on human PD-L1 expressing CHO-K1 cells
Protocol: as §8

T4 sequence (G7PSE7 entry or part of it limits assumed): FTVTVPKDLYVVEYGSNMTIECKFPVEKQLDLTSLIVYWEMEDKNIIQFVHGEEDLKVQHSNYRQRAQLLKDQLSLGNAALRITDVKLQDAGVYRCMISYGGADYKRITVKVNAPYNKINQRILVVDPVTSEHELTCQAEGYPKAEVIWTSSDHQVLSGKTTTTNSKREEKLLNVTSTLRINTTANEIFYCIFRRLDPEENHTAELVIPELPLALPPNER
T3 sequence (Q9NZQ7 19-238): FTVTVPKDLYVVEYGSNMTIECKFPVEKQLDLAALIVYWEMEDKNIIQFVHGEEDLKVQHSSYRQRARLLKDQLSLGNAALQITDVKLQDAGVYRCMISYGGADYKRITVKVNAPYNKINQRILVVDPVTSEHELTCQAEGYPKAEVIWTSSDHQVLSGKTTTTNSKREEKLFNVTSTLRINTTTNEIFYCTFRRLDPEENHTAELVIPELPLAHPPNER
T2 sequence (P01137 279-390 limits assumed): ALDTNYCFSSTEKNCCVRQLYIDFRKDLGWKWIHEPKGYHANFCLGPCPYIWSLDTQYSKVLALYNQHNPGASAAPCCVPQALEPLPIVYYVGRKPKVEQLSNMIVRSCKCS
T1 sequence (Q9NZQ7 19-290): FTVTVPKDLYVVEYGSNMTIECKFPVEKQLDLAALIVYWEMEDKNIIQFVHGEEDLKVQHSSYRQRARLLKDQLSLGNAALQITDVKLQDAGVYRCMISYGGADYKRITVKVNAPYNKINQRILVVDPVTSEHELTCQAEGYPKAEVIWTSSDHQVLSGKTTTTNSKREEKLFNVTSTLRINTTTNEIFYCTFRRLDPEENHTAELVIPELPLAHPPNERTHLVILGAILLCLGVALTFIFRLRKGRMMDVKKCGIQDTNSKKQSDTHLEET
T9 sequence (G7PSE7 entry or part of it limits assumed): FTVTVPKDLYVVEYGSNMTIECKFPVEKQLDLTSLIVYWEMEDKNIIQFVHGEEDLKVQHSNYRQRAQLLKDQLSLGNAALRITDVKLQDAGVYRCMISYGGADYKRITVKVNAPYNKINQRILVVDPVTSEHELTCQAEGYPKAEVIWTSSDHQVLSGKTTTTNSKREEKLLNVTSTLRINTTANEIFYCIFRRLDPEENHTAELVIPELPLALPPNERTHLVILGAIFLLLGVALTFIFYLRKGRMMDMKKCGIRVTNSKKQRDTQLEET
T8 sequence (Q9EP73 19-239 limits assumed): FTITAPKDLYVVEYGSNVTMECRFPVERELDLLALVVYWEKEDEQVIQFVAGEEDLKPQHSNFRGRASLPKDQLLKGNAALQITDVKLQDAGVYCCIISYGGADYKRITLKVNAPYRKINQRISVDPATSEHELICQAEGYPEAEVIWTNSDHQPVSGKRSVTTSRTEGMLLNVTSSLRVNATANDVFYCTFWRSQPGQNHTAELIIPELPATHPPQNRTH
T6 sequence (Q9EP73 19-290): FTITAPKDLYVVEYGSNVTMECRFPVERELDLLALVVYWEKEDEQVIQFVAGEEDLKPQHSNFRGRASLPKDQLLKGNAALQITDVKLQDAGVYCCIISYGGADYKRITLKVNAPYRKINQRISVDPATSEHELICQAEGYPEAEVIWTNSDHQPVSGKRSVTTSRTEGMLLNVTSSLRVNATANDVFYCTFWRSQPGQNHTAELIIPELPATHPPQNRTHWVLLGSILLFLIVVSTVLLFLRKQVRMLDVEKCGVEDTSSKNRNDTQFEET

- IC50 [1]: 0.04 nM
- EC50 (Human TGF-β1 [2]): 0.5 nM
- Kd (Human FcRn): 2570 nM
- Kd [3]: 0.695 nM
- koff [3]: 0.00168 s⁻¹
- kon [3]: 2.41e+06 M⁻¹ s⁻¹
- Kd [4]: 0.446 nM
- koff [4]: 0.00135 s⁻¹
- kon [4]: 3.03e+06 M⁻¹ s⁻¹
- EC50 (Human TGF-β3 [5]): 0.8 nM
- EC50 [6]: 1.2 nM
- EC50 (Human TGF-β2 [7]): 0.07 nM
- EC50 (read off the curve) (Human TGF-β3 [8]): ~0.8 nM
- TGF-β1 blockade IC50, SBE luciferase reporter gene assay (RGA) (Human TGF-β1 [9]): 1.2 nM
- hPD-1/PD-L1 signaling blockade IC50, NFAT luciferase reporter gene assay (RGA) [10]: 0.31 nM
- EC50 (read off the curve) (Human TGF-β1 [11]): ~0.5 nM
- Kd (Human TGF-β3 [12]): 0.00162 nM
- koff (Human TGF-β3 [12]): 9.35e-05 s⁻¹
- kon (Human TGF-β3 [12]): 5.78e+07 M⁻¹ s⁻¹
- Kd (Human TGF-β1 [13]): 0.00165 nM
- koff (Human TGF-β1 [13]): 0.000206 s⁻¹
- kon (Human TGF-β1 [13]): 1.25e+08 M⁻¹ s⁻¹
- EC50 (read off the curve) (Human TGF-β1 [14]): ~0.4 nM
- Kd [15]: 1080 nM
- Kd (Human TGF-β2 [16]): 0.369 nM
- koff (Human TGF-β2 [16]): 0.0149 s⁻¹
- kon (Human TGF-β2 [16]): 4.02e+07 M⁻¹ s⁻¹
- EC50 (read off the curve) [17]: ~0.2 nM
- EC50 [18]: 1.08 nM
- EC50 [19]: 0.7 nM
B1: WT1122-U14T1.G15-1.uIgG1 (antibody)
heavy: not shown
light: SYELTQPPSVSVSPGQTASITCSGSELPKRYAYWYQQKPGQSIVRVIYKDSERPSGISERFSGSSSGNTATLTISGTQAMDEADYYCSSTYGDRKLPIFGGGTKLTVLGQPKAAPSVTLFPPSSEELQANKATLVCLISDFYPGAVTVAWKADSSPVKAGVETTTPSKQSNNKYAASSYLSLTPEQWKSHKSYSCQVTHEGSTVEKTVAPTECS

Reference: US20230072133A1 (WUXI BIOLOGICS IRELAND, published 2023)
